Target: T1, C3b (human)
T1 construct: human complement C3, beta chain, as in C3b; human complement C3, alpha' chain of C3b (alpha chain without C3a); Mr 176,000 used; also called soluble C3b; fluid phase C3b
Assay: SPR; His-tagged rH fragment held on a Ni-charged NTA chip (BIAcore X or 3000; 500-1,000 RU, reloaded for each injection), C3 protein injected in HBS-P (10 mM HEPES pH 7.4, 150 mM NaCl, 0.005% P20) at 5 μL/min, 25°C; reference cell with nickel only; equilibrium levels fitted to a one-site equation
Settings: both partners purified

B1: recombinant Factor H fragment rH 6-15 (domain or fragment)
chain: PCDYPDIKHGGLYHENMRRPYFPVAVGKYYSYYCDEHFETPSGSYWDHIHCTQDGWSPAVPCLRKCYFPYLENGYNQNYGRKFVQGKSIDVACHPGYALPKAQTTVTCMENGWSPTPRCIRVKTCSKSSIDIENGFISESQYTYALKEKAKYQCKLGYVTADGETSGSITCGKDGWSAQPTCIKSCDIPVFMNARTKNDFTWFKLNDTLDYECHDGYESNTGSTTGSIVCGYNGWSDLPICYERECELPKIDVHLVPDRKKDQYKVGEVLKFSCKPGFTIVGPNSVQCYHFGLSPDLPICKEQVQSCGPPPELLNGNVKEKTKEEYGHSEVVEYYCNPRFLMKGPNKIQCVDGEWTTLPVCIVEESTCGDIPELEHGWAQLSSPPYYYGDSVEFNCSESFTMIGHRSITCIHGVWTQLPQCVAIDKLKKCKSSNLIILEEHLKNKKEFDHNSNIRYRCRGKEGWIHTVCINGRWDPEVNCSMAQIQLCPPPPQIPNSHNMTTTLNYRDGEKVSVLCQENYLIQEGEEITCKDGRWQSIPLCVEKIPCSQPPQIEHGTINSSRSSQESYAHGTKLSYTCEGGFRISEENETTCYMGKWSSPPQCEG
modifications: Limits from Sushi 6 start to Sushi 15 end (928 by convention, as the candidate feature list is cut off after Sushi 12). Residue 402 is set to Tyr as printed (Y402 variant), whichever allele the entry
B1 was tested, and the Kd was 15 µM.
